Results published in patent US20180118808A1 (CALIFORNIA INSTITUTE FOR BIOMEDICAL RESEARCH, published 2018).

Key:
E4 Chimeric Receptor = biological target: T1, E4 Chimeric Receptor; test: cell-based or functional assay
T1 chain: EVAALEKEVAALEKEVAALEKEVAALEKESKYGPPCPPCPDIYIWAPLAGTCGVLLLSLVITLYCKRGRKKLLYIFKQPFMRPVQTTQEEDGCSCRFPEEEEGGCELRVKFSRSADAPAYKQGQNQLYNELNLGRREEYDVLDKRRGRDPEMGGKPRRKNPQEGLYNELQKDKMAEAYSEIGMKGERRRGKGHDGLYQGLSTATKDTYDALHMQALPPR

K4 Chimeric Receptor = biological target: T2, K4 Chimeric Receptor; test: cell-based or functional assay
T2 chain: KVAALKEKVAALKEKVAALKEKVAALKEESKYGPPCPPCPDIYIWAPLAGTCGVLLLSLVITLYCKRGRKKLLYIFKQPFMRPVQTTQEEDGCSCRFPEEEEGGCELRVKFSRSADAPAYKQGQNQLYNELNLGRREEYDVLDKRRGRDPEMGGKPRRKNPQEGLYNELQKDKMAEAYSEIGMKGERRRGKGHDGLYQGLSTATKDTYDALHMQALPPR

Binder	EC50 (nM) of switch in cytotoxicity assay (LDH release), E4 CAR-T cells against CD19-positive Raji luc cells (E4 Chimeric Receptor)	EC50 (nM) of switch in cytotoxicity assay (LDH release), K4 CAR-T cells against CD19-positive Raji luc cells (K4 Chimeric Receptor)
Fmc63 HCCT K4 switch (Fab, V domains shown) VH: EVKLQESGPGLVAPSQSLSVTCTVSGVSLPDYGVSWIRQPPRKGLEWLGVIWGSETTYYNSALKSRLTIIKDNSKSQVFLKMNSLQTDDTAIYYCAKHYYYGGSYAMDYWGQGTSVTVSS VL: DIQMTQTTSSLSASLGDRVTISCRASQDISKYLNWYQQKPDGTVKLLIYHTSRLHSGVPSRFSGSGSGTDYSLTISNLEQEDIATYFCQQGNTLPYTFGGGTKLEIKR	0.00432 nM	
Fmc63 HCCT E4 switch (Fab, V domains shown) VH: EVKLQESGPGLVAPSQSLSVTCTVSGVSLPDYGVSWIRQPPRKGLEWLGVIWGSETTYYNSALKSRLTIIKDNSKSQVFLKMNSLQTDDTAIYYCAKHYYYGGSYAMDYWGQGTSVTVSS VL: DIQMTQTTSSLSASLGDRVTISCRASQDISKYLNWYQQKPDGTVKLLIYHTSRLHSGVPSRFSGSGSGTDYSLTISNLEQEDIATYFCQQGNTLPYTFGGGTKLEIKR		0.0507 nM
